Sequences and labels used below:
T1: recombinant extracellular domain of human TROP2 (human, UniProt P09758 27-274)
T1 construct: extracellular domain; Commercial protein (Acrobiosystem), used as the analyte in SPR; also called Trophoblast antigen 2; GA733-1
T1 sequence (looked up): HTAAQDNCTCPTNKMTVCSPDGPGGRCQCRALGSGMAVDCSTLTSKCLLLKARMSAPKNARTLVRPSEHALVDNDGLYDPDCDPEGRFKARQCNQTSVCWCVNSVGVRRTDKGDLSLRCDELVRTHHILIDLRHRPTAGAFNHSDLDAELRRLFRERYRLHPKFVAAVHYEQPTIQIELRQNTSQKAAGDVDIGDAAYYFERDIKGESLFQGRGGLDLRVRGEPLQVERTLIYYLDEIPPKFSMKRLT

B1: Ab0054 (antibody, human IgG1, kappa, V domains shown)
VH: QVQLVQSGAEVKKPGSSVKVSCKASGYRFTDYVINWVRQAPGQGLEWMGQIYPGSDSFHYNQKFQGRATLTADKSTNTAYMELSSLRSEDTAVYYCARFFEGLAYWGQGTLVTVSS
VL: DIQMTQSPSSLSASVGDRVTITCKASQGINNYLSWYQQKPGKAPKSLIYRANRLVDGVPSRFSGSGSGTDFTLTISSLQPEDFATYYCLQYDEFPLTFGGGTKVEIKR
notes: Humanized IgG; also called Ab0001-huV5-VL / Ab0001-huV4-VH
B2: Ab0063 (antibody, human IgG1, kappa, V domains shown)
VH: B1 VH
VL: B1 VL with D56S
notes: Humanized IgG; also called Ab0001-huV8-VL / Ab0001-huV4-VH
B3: Ab0052 (antibody, human IgG1, kappa, V domains shown)
VH: B1 VH
VL: B1 VL with T69Q, F71Y
notes: Humanized IgG; also called Ab0001-huV3-VL / Ab0001-huV4-VH
B4: Ab0062 (antibody, human IgG1, kappa, V domains shown)
VH: B1 VH with S57A
VL: B1 VL
notes: Humanized IgG; also called Ab062; Ab0001-huV5-VL / Ab0001-huV6-VH
B5: Ab0053 (antibody, human IgG1, kappa, V domains shown)
VH: B1 VH
VL: B1 VL with F71Y
notes: Humanized IgG; also called Ab0001-huV4-VL / Ab0001-huV4-VH
B6: Ab0064 (antibody, human IgG1, kappa, V domains shown)
VH: B1 VH with S57T
VL: B1 VL with D56S
notes: Humanized IgG; also called Ab0001-huV8-VL / Ab0001-huV5-VH
B7: Ab0061 (antibody, human IgG1, kappa, V domains shown)
VH: B1 VH with S57T
VL: B1 VL
notes: Humanized IgG; also called Ab0001-huV5-VL / Ab0001-huV5-VH

Numbering of substitutions follows the chain as printed.

The experiment deals with T1, recombinant extracellular domain of …. Put plainly: SPR, Biacore 8K, antibody captured on Protein A chip, TROP2 ECD as analyte, 25 C, 1:1 model. The method, then:
Binding kinetics and affinity analysis are performed. Surface Plasmon Resonance (SPR) analysis is performed on a Biacore 8K (GE healthcare) with a Sensor Chip Protein A (GE healthcare) following manufacturer's instructions. All measurements are performed at 25° C. in the HBS-EP+ buffer (10 mM HEPES, pH 7.4, 150 mM NaCl, 3 mM EDTA, and 0.05% surfactant P20). About 110-140 RU (Resonance unit) of each of the purified antibodies is captured on flow cells 2, 4, 6, 8, 10, 12, 14, 16 (i.e., the reaction surface) of the sensor chip, respectively. Flow cells 1, 3, 5, 7, 9, 11, 13 and 15 are treated with the HBS-EP+ buffer to serve as reference surfaces.
Serial dilutions of the recombinant extracellular domain of human TROP2 (i.e., the analyte) (Acrobiosystem) (243, 81, 27, 9, 3, 1, 0.333, and 0.111 nM, respectively) are prepared in HBS-EP+ buffer. Capturing of the antibodies is followed by a three-minute injection (association phase) of serial dilutions of TROP2 at a flow rate of 30 μL/min and ten minutes of buffer flow (dissociation phase). The chip surface is regenerated by two pulses of 30-second injection of 10 mM Glycine-HCl pH 1.5 at a flow rate of 50 μL/min. The collected data are processed on a Biacore 8K Evaluation software using methods known in the art, comprising the following steps: (1) setting the response on the y-axis and the start of the injection on the x-axis to zero, (2) performing double referencing by firstly subtracting the reference surface data from the reaction surface data to get the analyte injection curves, and then subtracting the buffer injection curves from the analyte injection curves, and (3) performing the kinetic analysis using the 1:1 binding model with a global fit. The result for each antibody is presented as Ka (on-rate), Kd (off-rate) and KD (affinity constant) (Table 3).
Background: Surface plasmon resonance follows binding to a sensor surface in real time, without labels.
B1: the Kd (commonly the constant that tells how readily two partners part at equilibrium) was determined as 0.43 nM; the koff (in general, the rate constant with which the complex falls apart) is 0.000416 s⁻¹; the kon (as a rule, the rate constant with which the complex forms) stood at 975000 M⁻¹ s⁻¹.

Regarding B2, the Kd was 0.46 nM, the koff is 0.000394 s⁻¹ and the kon was found to be 862000 M⁻¹ s⁻¹.

For the molecule B3, the Kd was found to be 0.31 nM, the koff was found to be 0.000321 s⁻¹ and the kon came to 1.03e+06 M⁻¹ s⁻¹.

For B4, the Kd came out at 0.81 nM, the off-rate constant (koff) was found to be 0.000719 s⁻¹ and the kon amounted to 889000 M⁻¹ s⁻¹.

For B5, the Kd was determined as 0.32 nM, the koff is 0.000326 s⁻¹ and the kon was found to be 1.01e+06 M⁻¹ s⁻¹.

In the case of B6, the Kd is 0.76 nM, the koff came out at 0.000547 s⁻¹ and the kon was 722000 M⁻¹ s⁻¹.

As for B7, the Kd is 0.62 nM, the koff was 0.000545 s⁻¹ and the kon is 874000 M⁻¹ s⁻¹.
